PMC10397247

Assays:
[1] = target: T1, P6SC2; assay: two-hybrid library CCmax; conditions: mean of both orientations;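 also: natural log of median RNA to DNA barcode read ratio; higher means stronger binding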
T1 chain: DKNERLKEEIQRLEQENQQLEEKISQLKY

[2] = target: T2, P6SC1; assay: two-hybrid library CCmax; conditions: mean of both orientations;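 also: natural log of median RNA to DNA barcode read ratio; higher means stronger binding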
T2 chain: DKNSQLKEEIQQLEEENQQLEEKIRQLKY

[3] = target: T1, P6SC2; assay: two-hybrid library CCNG1;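 also: natural log of median RNA to DNA barcode read ratio; higher means stronger binding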
[4] = target: T2, P6SC1; assay: two-hybrid library CCNG1;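 also: natural log of median RNA to DNA barcode read ratio; higher means stronger binding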
[5] = target: T3, O16; assay: two-hybrid library CCNG1;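 also: natural log of median RNA to DNA barcode read ratio; higher means stronger binding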
T3 chain: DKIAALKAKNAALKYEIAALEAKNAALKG

[6] = target: T4, O10; assay: two-hybrid library CCNG1;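 also: natural log of median RNA to DNA barcode read ratio; higher means stronger binding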
T4 chain: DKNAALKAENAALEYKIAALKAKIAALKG

[7] = target: T5, O5; assay: two-hybrid library CCNG1
T5 chain: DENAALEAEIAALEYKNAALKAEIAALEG

[8] = target: T6, O7; assay: two-hybrid library CCNG1
T6 chain: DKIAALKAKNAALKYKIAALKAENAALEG

[9] = target: T7, O2; assay: two-hybrid library CCNG1
T7 chain: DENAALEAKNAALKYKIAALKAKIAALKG

[10] = target: T8, O4; assay: two-hybrid library CCNG1
T8 chain: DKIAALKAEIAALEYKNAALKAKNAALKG

[11] = target: T9, O14; assay: two-hybrid library CCNG1
T9 chain: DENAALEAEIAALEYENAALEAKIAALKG

[12] = target: T10, O6; assay: two-hybrid library CCNG1
T10 chain: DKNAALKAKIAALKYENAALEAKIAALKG

[13] = target: T11, O3; assay: two-hybrid library CCNG1
T11 chain: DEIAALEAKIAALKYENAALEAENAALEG

[14] = target: T12, O13; assay: two-hybrid library CCNG1
T12 chain: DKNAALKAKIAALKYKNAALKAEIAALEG

[15] = target: T13, O12; assay: two-hybrid library CCNG1
T13 chain: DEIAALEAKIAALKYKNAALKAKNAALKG

[16] = target: T14, O8; assay: two-hybrid library CCNG1
T14 chain: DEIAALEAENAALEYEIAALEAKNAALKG

[17] = target: T15, O15; assay: two-hybrid library CCNG1
T15 chain: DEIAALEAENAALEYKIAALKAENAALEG

[18] = target: T16, O11; assay: two-hybrid library CCNG1
T16 chain: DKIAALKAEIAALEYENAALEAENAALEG

[19] = target: T17, O9; assay: two-hybrid library CCNG1
T17 chain: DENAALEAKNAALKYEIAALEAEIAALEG

[20] = target: T18, P6A-bH; assay: two-hybrid library CCNG1
T18 chain: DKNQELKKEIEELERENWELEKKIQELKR

[21] = target: T19, P12A-bH; assay: two-hybrid library CCNG1
T19 chain: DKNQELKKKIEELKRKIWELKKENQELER

[22] = target: T20, P3A-bH; assay: two-hybrid library CCNG1
T20 chain: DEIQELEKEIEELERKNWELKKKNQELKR

[23] = target: T21, P1A-bH; assay: two-hybrid library CCNG1
T21 chain: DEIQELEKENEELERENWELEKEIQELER

[24] = target: T22, P8A-bH; assay: two-hybrid library CCNG1
T22 chain: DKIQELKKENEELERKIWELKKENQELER

[25] = target: T23, P5A-bH; assay: two-hybrid library CCNG1
T23 chain: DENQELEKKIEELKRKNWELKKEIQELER

[26] = target: T24, P7A-bH; assay: two-hybrid library CCNG1
T24 chain: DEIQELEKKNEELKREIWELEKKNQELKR

[27] = target: T25, P11A-bH; assay: two-hybrid library CCNG1
T25 chain: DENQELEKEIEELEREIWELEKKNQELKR

[28] = target: T26, P4A-bH; assay: two-hybrid library CCNG1
T26 chain: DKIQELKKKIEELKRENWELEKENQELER

[29] = target: T27, P2A-bH; assay: two-hybrid library CCNG1
T27 chain: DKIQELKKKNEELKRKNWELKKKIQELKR

[30] = target: T28, P1bHq; assay: two-hybrid library CCNG1
T28 chain: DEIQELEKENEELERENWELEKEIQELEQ

[31] = target: T29, P9bHq; assay: two-hybrid library CCNG1
T29 chain: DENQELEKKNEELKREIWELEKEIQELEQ

[32] = target: T30, P3bHq; assay: two-hybrid library CCNG1
T30 chain: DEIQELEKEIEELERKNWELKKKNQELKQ

[33] = target: T31, P5bHq; assay: two-hybrid library CCNG1
T31 chain: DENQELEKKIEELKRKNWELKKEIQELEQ

[34] = target: T32, P12bHq; assay: two-hybrid library CCNG1
T32 chain: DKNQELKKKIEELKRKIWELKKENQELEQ

[35] = target: T33, P2bHq; assay: two-hybrid library CCNG1
T33 chain: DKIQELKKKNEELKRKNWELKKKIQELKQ

[36] = target: T34, P6bHq; assay: two-hybrid library CCNG1
T34 chain: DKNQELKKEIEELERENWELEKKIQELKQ

[37] = target: T35, P8bHq; assay: two-hybrid library CCNG1
T35 chain: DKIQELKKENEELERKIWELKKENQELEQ

[38] = target: T36, P11bHq; assay: two-hybrid library CCNG1
T36 chain: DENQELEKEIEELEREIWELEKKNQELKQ

[39] = target: T37, P4bHq; assay: two-hybrid library CCNG1
T37 chain: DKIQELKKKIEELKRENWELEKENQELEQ

[40] = target: T38, P7bHq; assay: two-hybrid library CCNG1
T38 chain: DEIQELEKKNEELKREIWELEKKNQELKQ

[41] = target: T39, P9A-bH; assay: two-hybrid library CCNG1
T39 chain: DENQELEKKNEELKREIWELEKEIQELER

[42] = target: T40, 4H2568-bN; assay: two-hybrid library CCNG1
T40 chain: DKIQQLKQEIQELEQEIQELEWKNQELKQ

[43] = target: T41, 4H3592-bN; assay: two-hybrid library CCNG1
T41 chain: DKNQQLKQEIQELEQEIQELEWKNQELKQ

[44] = target: T42, 4H2619-bN; assay: two-hybrid library CCNG1
T42 chain: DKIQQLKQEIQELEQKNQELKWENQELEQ

[45] = target: T43, 4H3961-bN; assay: two-hybrid library CCNG1
T43 chain: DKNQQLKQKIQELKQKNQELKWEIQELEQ

[46] = target: T44, 4H1387-bN; assay: two-hybrid library CCNG1
T44 chain: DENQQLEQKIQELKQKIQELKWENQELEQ

[47] = target: T45, 4H1072-bN; assay: two-hybrid library CCNG1
T45 chain: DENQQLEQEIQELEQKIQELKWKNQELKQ

[48] = target: T46, 4H1406-bN; assay: two-hybrid library CCNG1
T46 chain: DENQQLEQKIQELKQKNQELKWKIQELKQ

[49] = target: T47, 4H4038-bN; assay: two-hybrid library CCNG1
T47 chain: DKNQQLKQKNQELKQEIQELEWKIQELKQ

[50] = target: T48, 4H363-bN; assay: two-hybrid library CCNG1
T48 chain: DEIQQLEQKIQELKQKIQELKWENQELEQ

[51] = target: T49, 4H470-bN; assay: two-hybrid library CCNG1
T49 chain: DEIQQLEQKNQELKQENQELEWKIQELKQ

[52] = target: T50, 4H1193-bN; assay: two-hybrid library CCNG1
T50 chain: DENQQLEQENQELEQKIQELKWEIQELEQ

[53] = target: T51, 4H344-bN; assay: two-hybrid library CCNG1
T51 chain: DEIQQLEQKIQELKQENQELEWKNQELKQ

[54] = target: T52, 4H2745-bN; assay: two-hybrid library CCNG1
T52 chain: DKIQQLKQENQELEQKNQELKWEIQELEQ

[55] = target: T53, 4H3907-bN; assay: two-hybrid library CCNG1
T53 chain: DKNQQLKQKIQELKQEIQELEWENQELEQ

[56] = target: T54, 4H3601-bN; assay: two-hybrid library CCNG1
T54 chain: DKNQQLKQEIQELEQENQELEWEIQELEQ

Binder: DENARLEEKIRQLKQKNSQLKEEIQQLEY [P5SC2]
- interaction score [1]: 0.811
- interaction score [2]: 0.953
- interaction score [3]: 0.391
- interaction score [4]: 0.383

Binder: DKNAALKAENAALEYKIAALKAKIAALKG [O10]
- interaction score [5]: -1.79
- interaction score [6]: -2.12
- interaction score [7]: -0.483
- interaction score [8]: -2.17
- interaction score [9]: -0.272
- interaction score [10]: -1.67
- interaction score [11]: -2.41
- interaction score [12]: -2.48
- interaction score [13]: -1.83
- interaction score [14]: -1.79
- interaction score [15]: -2.06
- interaction score [16]: -1.57
- interaction score [17]: -1.1
- interaction score [18]: -1.61
- interaction score [19]: 2.21

Binder: DKNQELKKENEELERKIWELKKKIQELKR [P10A-bH]
- interaction score [20]: 0.998
- interaction score [21]: 1.15
- interaction score [22]: 0.247
- interaction score [23]: 1.06
- interaction score [24]: -0.68
- interaction score [25]: -0.49
- interaction score [26]: 0.686
- interaction score [27]: -0.118
- interaction score [28]: 0.192
- interaction score [29]: -0.586

Binder: DENSQLEEKISQLKQKNSRLKEEIARLEY [P5SC1]
- interaction score [1]: 0.454
- interaction score [2]: 1.63
- interaction score [3]: -0.371
- interaction score [4]: 0.785

Binder: DENQELEKEIEELEREIWELEKKNQELKQ [P11bHq]
- interaction score [30]: 0.41
- interaction score [31]: 0.854
- interaction score [32]: 1.18
- interaction score [33]: 0.352
- interaction score [34]: 1.78
- interaction score [35]: 0.67
- interaction score [36]: 0.74
- interaction score [37]: 0.862
- interaction score [38]: 1.25
- interaction score [39]: 1.65
- interaction score [40]: -1.22

Binder: DENQELEKEIEELEREIWELEKKNQELKR [P11A-bH]
- interaction score [20]: 0.692
- interaction score [21]: 1.5
- interaction score [22]: 0.615
- interaction score [23]: 1.5
- interaction score [24]: 0.165
- interaction score [41]: 1.09
- interaction score [25]: 0.555
- interaction score [26]: 0.921
- interaction score [27]: -2.55
- interaction score [28]: 1.83
- interaction score [29]: 0.45

Binder: DENQQLEQEIQELEQKIQELKWKNQELKQ [4H1072-bN]
- interaction score [42]: -0.182
- interaction score [43]: 0.235
- interaction score [44]: 0.775
- interaction score [45]: 0.231
- interaction score [46]: 0.922
- interaction score [47]: 0.692
- interaction score [48]: -0.693
- interaction score [49]: 0.389
- interaction score [50]: 1.58
- interaction score [51]: 0.0488
- interaction score [52]: -0.235
- interaction score [53]: -0.983
- interaction score [54]: -0.0701
- interaction score [55]: 1.91
- interaction score [56]: -0.0449
